Literature values as cited in article PMC7060279.

Tests used:
[1] = molecular target: TLR4 (Homo sapiens) (UniProt O00206)
[2] = molecular target: TLR4/MD2 (Homo sapiens) (UniProt O00206)
Chain of TLR4/MD2 (Homo sapiens) (O00206 24-839, chain 1 of 2): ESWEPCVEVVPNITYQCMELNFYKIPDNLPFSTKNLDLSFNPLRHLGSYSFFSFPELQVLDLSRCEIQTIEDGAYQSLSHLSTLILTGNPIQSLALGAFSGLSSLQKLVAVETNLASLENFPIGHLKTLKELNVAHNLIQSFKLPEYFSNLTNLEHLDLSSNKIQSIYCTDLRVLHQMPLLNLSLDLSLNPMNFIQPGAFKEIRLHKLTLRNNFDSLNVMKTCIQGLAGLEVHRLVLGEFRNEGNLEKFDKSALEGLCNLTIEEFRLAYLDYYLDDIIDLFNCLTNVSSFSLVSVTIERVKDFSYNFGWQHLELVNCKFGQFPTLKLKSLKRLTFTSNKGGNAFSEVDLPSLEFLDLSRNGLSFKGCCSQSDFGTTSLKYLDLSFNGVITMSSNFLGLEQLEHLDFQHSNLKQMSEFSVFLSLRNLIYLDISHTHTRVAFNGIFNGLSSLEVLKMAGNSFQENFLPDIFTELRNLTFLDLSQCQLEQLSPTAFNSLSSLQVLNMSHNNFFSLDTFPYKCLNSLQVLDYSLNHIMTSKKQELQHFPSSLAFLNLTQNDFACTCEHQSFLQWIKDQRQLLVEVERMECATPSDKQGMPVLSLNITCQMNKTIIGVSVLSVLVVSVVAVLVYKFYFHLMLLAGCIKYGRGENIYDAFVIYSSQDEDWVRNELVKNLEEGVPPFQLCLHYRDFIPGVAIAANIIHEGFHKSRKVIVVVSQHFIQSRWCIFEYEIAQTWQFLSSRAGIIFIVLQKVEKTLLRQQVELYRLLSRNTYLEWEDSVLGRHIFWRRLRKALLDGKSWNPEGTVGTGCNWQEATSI
Chain of TLR4/MD2 (Homo sapiens) (Q9Y6Y9 19-160, chain 2 of 2, further chain): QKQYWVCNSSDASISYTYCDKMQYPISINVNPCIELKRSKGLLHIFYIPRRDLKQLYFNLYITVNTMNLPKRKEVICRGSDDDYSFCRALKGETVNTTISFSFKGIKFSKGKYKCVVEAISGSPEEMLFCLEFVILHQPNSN

Chain of HMGB1 (P09429 whole entry): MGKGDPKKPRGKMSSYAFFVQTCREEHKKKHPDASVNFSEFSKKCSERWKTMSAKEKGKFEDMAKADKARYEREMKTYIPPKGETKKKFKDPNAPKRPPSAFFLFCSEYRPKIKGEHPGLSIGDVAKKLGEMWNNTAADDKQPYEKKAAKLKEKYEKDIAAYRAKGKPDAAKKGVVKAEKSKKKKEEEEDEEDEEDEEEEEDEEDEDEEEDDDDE
Chain of TLR4 (Homo sapiens) (O00206 24-839): as the sequence (O00206 24-839, chain 1 of 2) above

Kd [1]: 650 nM | Kd [2]: 420 nM
Substance: HMGB1 (from UniProt P09429)
